The text below walks through data of patent publication US20240418729A1.

Experiment [1] addresses human kappa light chains (kappa LCs) of control pooled human serum (human). Description: affinity capture from IgG-depleted serum, elution, LysC digestion, PRM mass spectrometry.
Experiment [2] has the same target. Description: affinity capture from 50 µl IgG-depleted serum, elution, LysC digestion, PRM mass spectrometry.
Experiment [3] concerns the target human lambda light chains (lambda LCs) of control pooled human serum (human). The experiment in a line: affinity capture from 100 µl IgG-depleted serum, elution, LysC digestion, PRM mass spectrometry.

protein L agarose showed a fold increase in kappa FLC dimer signal compared to un-enriched serum in experiment [1] of 155 fold.
The substance “Capture Select affinity beads specific for kappa (KappaXP) LCs” came in with a fold increase in kappa FLC dimer signal compared to un-enriched serum in experiment [2] of 186 fold.
In turn, “Capture Select affinity beads specific for lambda (LambdaXP) LCs” showed a fold increase in lambda FLC dimer signal compared to un-enriched serum in experiment [3] of 113 fold.
